The record followed here is article PMC3145919 (Neuron, 2011).

Where two headings read alike, the source gives them in different places.

The target in data set [1] is GluR6Δ2 ATD (G215N/M217T glycan wedge mutant) (rat) (UniProt P42260). In words: AUC.
Data set [2] has as its target GluR6Δ2 F58A mutant ATD (rat) (UniProt P42260). The data set can be described thus: AUC.
Data set [3] concerns the target KA2 amino terminal domain (ATD), wild type (rat) (UniProt Q63273). In words: AUC.
Data set [4] shares this target. The data set can be described thus: AUC. This is another data set of the same source.
Data set [5] concerns the molecule itself. In words: SEC-MALS.
Data set [6] deals with the molecule itself. In words: AUC.
Data set [7] deals with the molecule itself. In words: AUC. This is another data set of the same source.
Data set [8] deals with the molecule itself. The data set can be described thus: AUC. This is another data set of the same source.

A word on the Kd: it is the concentration at which binding is half-saturated. For the molecule “KA2 Y57A mutant ATD (domain or fragment)”, the dissociation constant Kd in data set [1] came to 0.14 µM; in data set [2] it was 1.63 µM.

Regarding “KA2 Y57A/E156A mutant ATD (domain or fragment)”, the Kd in data set [2] was 2 µM.

In the case of “KA2 Y57A/L163A mutant ATD (domain or fragment)”, in data set [2], the Kd amounted to 6.7 µM.

“KA2 Y57A/S165G/T168A mutant ATD (domain or fragment)” yielded an equilibrium dissociation constant (Kd) in data set [2] of 13 µM.

Regarding “KA2 amino terminal domain (ATD), wild type (from UniProt Q63273 20-406) (domain or fragment)”, the values for the Kd in data set [3] and in data set [4] were 350 µM and 410 µM, respectively.

B1: GluR6 amino terminal domain (ATD), wild type (domain or fragment, rat)
chain: TTHVLRFGGIFEYVESGPMGAEELAFRFAVNTINRNRTLLPNTTLTYDTQKINLYDSFEASKKACDQLSLGVAAIFGPSHSSSANAVQSICNALGVPHIQTRWKHQVSDNKDSFYVSLYPDFSSLSRAILDLVQFFKWKTVTVVYDDSTGLIRLQELIKAPSRYNLRLKIRQLPADTKDAKPLLKEMKRGKEFHVIFDCSHEMAAGILKQALAMGMMTEYYHYIFTTLDLFALDVEPYRYSGVNMTGFRILNTENTQVSSIIEKWSMERLQAPPKPDSGLLDGFMTTDAALMYDAVHVVSVAVQQFPQMTVSSLQCNRHKPWRFGTRFMSLIKEAHWEGLTGRITFNKTNGLRTDFDLDVISLKEEGLEKIGTWDPASGLNMTESQKGK
modifications: N-linked glycans
For B1, the binding result in data set [5] is “binds”.

B2: GluR6Δ2 ATD (G215N/M217T glycan wedge mutant) (domain or fragment, rat)
chain: TTHVLRFGGIFEYVESGPMGAEELAFRFAVNTINRNRTLLPNTTLTYDTQKINLYDSFEASKKACDQLSLGVAAIFGPSHSSSANAVQSICNALGVPHIQTRWKHQVSDNKDSFYVSLYPDFSSLSRAILDLVQFFKWKTVTVVYDDSTGLIRLQELIKAPSRYNLRLKIRQLPADTKDAKPLLKEMKRGKEFHVIFDCSHEMAAGILKQALAMNMTTEYYHYIFTTLDLFALDVEPYRYSGVNMTGFRILNTENTQVSSIIEKWSMERLQAPPKPDSGLLDGFMTTDAALMYDAVHVVSVAVQQFPQMTVSSLQCNRHKPWRFGTRFMSLIKEAHWEGLTGRITFNKTNGLRTDFDLDVISLKEEGLEKIGTWDPASGLNMTESQKGK
modifications: N-linked glycans, one introduced by the mutations (glycan wedge)
As usually defined, the stoichiometry N is a count of units in the complex or per binding partner. For the molecule B2, the results for the Kd in data set [6] and in data set [7] were 0.25 µM and 0.35 µM, respectively. Besides, the “stoichiometry N” value in data set [5] was 2.

B3: GluR6Δ1 ATD (A213N/G215S glycan wedge mutant) (domain or fragment, rat)
chain: TTHVLRFGGIFEYVESGPMGAEELAFRFAVNTINRNRTLLPNTTLTYDTQKINLYDSFEASKKACDQLSLGVAAIFGPSHSSSANAVQSICNALGVPHIQTRWKHQVSDNKDSFYVSLYPDFSSLSRAILDLVQFFKWKTVTVVYDDSTGLIRLQELIKAPSRYNLRLKIRQLPADTKDAKPLLKEMKRGKEFHVIFDCSHEMAAGILKQALNMSMMTEYYHYIFTTLDLFALDVEPYRYSGVNMTGFRILNTENTQVSSIIEKWSMERLQAPPKPDSGLLDGFMTTDAALMYDAVHVVSVAVQQFPQMTVSSLQCNRHKPWRFGTRFMSLIKEAHWEGLTGRITFNKTNGLRTDFDLDVISLKEEGLEKIGTWDPASGLNMTESQKGK
modifications: N-linked glycans, one introduced by the mutations (glycan wedge)
B3: the “stoichiometry N” value in data set [5] came out at 2.

B4: wt GluR6/KA2 ATD heterodimer (complex, rat)
chain 1: TTHVLRFGGIFEYVESGPMGAEELAFRFAVNTINRNRTLLPNTTLTYDTQKINLYDSFEASKKACDQLSLGVAAIFGPSHSSSANAVQSICNALGVPHIQTRWKHQVSDNKDSFYVSLYPDFSSLSRAILDLVQFFKWKTVTVVYDDSTGLIRLQELIKAPSRYNLRLKIRQLPADTKDAKPLLKEMKRGKEFHVIFDCSHEMAAGILKQALAMGMMTEYYHYIFTTLDLFALDVEPYRYSGVNMTGFRILNTENTQVSSIIEKWSMERLQAPPKPDSGLLDGFMTTDAALMYDAVHVVSVAVQQFPQMTVSSLQCNRHKPWRFGTRFMSLIKEAHWEGLTGRITFNKTNGLRTDFDLDVISLKEEGLEKIGTWDPASGLNMTESQKGK
chain 2: VLSSLRMAAILDDQTVCGRGERLALALAREQINGIIEVPAKARVEVDIFELQRDSQYETTDTMCQILPKGVVSVLGPSSSPASASTVSHICGEKEIPHIKVGPEETPRLQYLRFASVSLYPSNEDVSLAVSRILKSFNYPSASLICAKAECLLRLEELVRGFLISKETLSVRMLDDSRDPTPLLKEIRDDKVSTIIIDANASISHLVLRKASELGMTSAFYKYILTTMDFPILHLDGIVEDSSNILGFSMFNTSHPFYPEFVRSLNMSWRENCEASTYPGPALSAALMFDAVHVVVSAVRELNRSQEIGVKPLACTSANIWPHGTSLMNYLRMVEYDGLTGRVEFNSKGQRTNYTLRILEKSRQGHREIGVWYSNRTLAMNATTLDI
modifications: N-linked glycans | N-linked glycans
In turn, B4 displayed a Kd in data set [8] of 6.2 µM.
